Laboratory results taken from PMC7243271 (Biochemistry, 2019).
One block for each binder: values may come before it.

Experiments:
SEC-MALS = molecular target: the molecule itself; assay: SEC-MALS
[1] = molecular target: Nup358-min (residues 2147–2240 of human Nup358) (human, UniProt P49792 2147-2240); assay: SEC-MALS

B1: Nup358-KLC2-fusion protein (other, human | mouse, UniProt P49792 2147-2240, looked up)
chain: LDIPLQTPHKLVDTGRAAKLIQRAEEMKSGLKDFKTFLTNDQTKVTEEENKGSGTGAAGASDTTIKPNPENTGPTLEWDNYDLREDALDDSVSSRLRTLHNLVIQYASQGRYEVAVPLCKQALEDLEKTSGHDHPDVATMLNILALVYRDQNKYKDAAHLLNDALAIREKTLGKDHPAVAATLNNLAVLYGKRGKYKEAEPLCKRALEIREKVLGKFHPDVAKQLSNLALLCQNQGKAEEVEYYYRRALEIYATRLGPDDPNVAKTKNNLASCYLKQGKYQDAETLYKEILTRAHEKEFGSVNGENKPIWMHAEEREESKDKRRDRRPMEYGSWYKACKVDSPTVNTTLRTLGALYRPEGKLEAAHTLEDCASRSRKQG
stoichiometry N (SEC-MALS): 2

stoichiometry N [1]: 1
B2: KLC2^TPR (residues 196–480 of mouse kinesin-1 light chain 2 isoform 1) (domain or fragment, UniProt O88448 196-480, looked up)
chain: RLRTLHNLVIQYASQGRYEVAVPLCKQALEDLEKTSGHDHPDVATMLNILALVYRDQNKYKDAAHLLNDALAIREKTLGKDHPAVAATLNNLAVLYGKRGKYKEAEPLCKRALEIREKVLGKFHPDVAKQLSNLALLCQNQGKAEEVEYYYRRALEIYATRLGPDDPNVAKTKNNLASCYLKQGKYQDAETLYKEILTRAHEKEFGSVNGENKPIWMHAEEREESKDKRRDRRPMEYGSWYKACKVDSPTVNTTLRTLGALYRPEGKLEAAHTLEDCASRSRKQG
